Results on three substances are retold here after paper PMC3794996.

Test [1] concerns the target A/bat/Peru/10 N11 NAL ectodomain (neuraminidase-like protein of influenza virus A/flat-faced bat/Peru/033/2010, H18N11) (influenza A virus A/flat-faced bat/Peru/033/2010 (H18N11)). In words: crystal structure.
Test [2] concerns the target A/bat/Peru/10 N11 NAL protein with ectodomain plus stalk region (influenza A virus A/flat-faced bat/Peru/033/2010 (H18N11)).
For test [3], the target named is A/bat/Peru/10 H18 HA ectodomain (hemagglutinin of influenza virus A/flat-faced bat/Peru/033/2010, H18N11) (influenza A virus A/flat-faced bat/Peru/033/2010 (H18N11)). In words: crystal structure.

As for “A/bat/Peru/10 N11 NAL ectodomain (neuraminidase-like protein of influenza virus A/flat-faced bat/Peru/033/2010, H18N11) (domain or fragment)”, the stoichiometry N – broadly, a count of units in the complex or per binding partner – in test [1] is 4.

“A/bat/Peru/10 N11 NAL protein with ectodomain plus stalk region (domain or fragment)”: the stoichiometry N in test [2] turned out to be 4. “A/bat/Peru/10 H18 HA ectodomain (hemagglutinin of influenza virus A/flat-faced bat/Peru/033/2010, H18N11) (domain or fragment)” showed a stoichiometry N in test [3] of 3.
